Experimental data as given in the supplement of paper PMC12764529.
± gives the half width of the 95% confidence interval.

Key:
[1] = folding stability dG unfold from chymotrypsin proteolysis; higher = more stable
Outline: (§1)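 How resistant each design was to proteolysis was captured as K50, inferred by Bayesian fitting of sequencing counts. Unfolding free energy was then derived relative to a sequence-predicted unfolded-state K50 and a shared folded-state K50, per protease or combined. Digestion used trypsin and chymotrypsin at 11 threefold-diluted concentrations plus a no-protease condition, on mini-proteins under 80 residues without cysteine in a PA-tagged cDNA display construct. Designs were kept only when AlphaFold2 dimer inter-PAE was above 15.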

[2] = folding stability dG unfold from trypsin proteolysis; higher = more stable
Outline: as §1

[3] = folding stability dG unfold (combined trypsin and chymotrypsin); higher = more stable
Outline: as §1

| Sequence | folding stability dG unfold [1] | folding stability dG unfold [2] | folding stability dG unfold [3] |
| --- | --- | --- | --- |
| SAGGSVKIKIKVPKDNPEAKKLAEKLRKLPGVKEVKVKKVKEINGYLVLEIEVEVSPEVKEKLKELLSAGGS [r16_394_TrROS_Hall] | 2.75 ± 0.18 kcal/mol | 2.71 ± 0.25 kcal/mol | 2.97 ± 0.34 kcal/mol |
| SAGGSVKVELKGDYLVITIPVEVPGDKDKPALLTIVIDLSPNGKPARIEMRSLETGKPLGEFTIDLSAGGSA [r2_412_TrMRF] | 2.63 ± 0.04 kcal/mol | 2.14 ± 0.099 kcal/mol | 2.43 ± 0.07 kcal/mol |
| SAGGSVRLELEGVNPETGERYRLEFELPPVPLPPVLVVPLEDLELLRRLGIPEDAAVFPELGLVVVASAGGS [r16_194_TrMRF] | 2.76 ± 0.051 kcal/mol | 2.29 ± 0.082 kcal/mol | 2.66 ± 0.12 kcal/mol |
| SAGGSVSDIVNELKKKGIKVTSIEKTEDGTYVITTELPNGVKKEYKYSTSDPKNVAALKAAIPEELVSAGGS [r16_821_JUSTAS] | 1.19 ± 0.072 kcal/mol | 1.44 ± 0.038 kcal/mol | 1.36 ± 0.066 kcal/mol |
| SAGGSVTKEELEKLNVEEVAALLPEDYTVTVVPGTGVVVISAPDRTLTITHDPATGKVTLTSEVEVSAGGSA [r2_470_JUSTAS] | 0.125 ± 0.21 kcal/mol | 1.41 ± 0.1 kcal/mol | 0.797 ± 0.15 kcal/mol |
| SAGGSVVPASEPVTIPDTATGTTLTLPTPAGATITPDPATNTTTVTFTDGDRASSVTFVNGAATSASTASAG [r5_22_JUSTAS] | -0.139 ± 0.21 kcal/mol | -0.53 ± 0.098 kcal/mol | -0.162 ± 0.11 kcal/mol |
| SAGGSWIEFMIMVPYPDGKPLEDLPPEEVVDIAKTFMSDFGYKIKDINVQYNPDDGYVHVPIEIKPSAGGSA [r2_237_TrROS] | 1.09 ± 0.2 kcal/mol | 1.26 ± 0.074 kcal/mol | 1.21 ± 0.2 kcal/mol |
| SAGGSYRVETTKTEVSEATAPDGTAYRVTTTTTVVTYPDGTRRTVTNVTITDPATGVPTSSTATTTAVSAGG [r13_133_JUSTAS] | 2.056 ± 0.017 kcal/mol | 2.45 ± 0.048 kcal/mol | 2.25 ± 0.03 kcal/mol |
| SAGGTAEEIAEKVRDIFQDNGYPIEVEPRRWDPNNYVTWRMRMPGWSIEIQWDPDDLEVEIEIEPMPSAGGS [r8_157_TrROS] | 3.71 ± 0.11 kcal/mol | 2.47 ± 0.073 kcal/mol | 3.24 ± 0.2 kcal/mol |
| SAGGTAEEIAETIAEKFSKKNNNPNVRITVEKEPDSLRIDITFPNNGHEIEIEFEDGGIRKIEWEPYSAGGS [r16_397_TrROS] | -0.251 ± 0.85 kcal/mol | 0.276 ± 0.27 kcal/mol | -0.269 ± 0.94 kcal/mol |
| SAGGTAEELAKNIADNLQKAGWIKKVEVEVHPSPDGNIMVRIEIKIEPPPPPPPPKVEYDENGKPRYDSAGG [r13_957_TrROS] | 0.662 ± 0.23 kcal/mol | 1.04 ± 0.12 kcal/mol | 0.924 ± 0.39 kcal/mol |
| SAGGTIEITFMVRTPEEAEDMADMIARMLAREHGMKVTIDDVEVHEYKDPEDGQEYYMVEFRIEIKPSAGGS [r8_171_TrROS] | 4.146 ± 0.04 kcal/mol | 3.23 ± 0.081 kcal/mol | 3.88 ± 0.11 kcal/mol |
| SAGGTIMIPFDTPEQAKDIREAAKDGEPIEIRPPDGKPIKFKIKDVEVDPNSGWLVIKIPNGRTIPISAGGS [r16_254_TrROS] | 0.151 ± 0.15 kcal/mol | -0.179 ± 0.19 kcal/mol | 0.0332 ± 0.097 kcal/mol |
| SAGGTMIELKSASGKTALLPLPPGTERVEREGDKWTIYLPPEYTLTVEITAPVPPSSLFDLKVLSRKLSAGG [r19_274_JUSTAS] | 0.509 ± 0.35 kcal/mol | 0.595 ± 0.077 kcal/mol | 0.734 ± 0.31 kcal/mol |
| SAGGTSYLVRLELYETSTGEPLELELPFPNLPAEEVEELAKELAKALAEPTGNDLKARVEVVPLPDESAGGS [r8_185_TrMRF] | 0.717 ± 0.054 kcal/mol | 0.0944 ± 0.031 kcal/mol | 0.53 ± 0.052 kcal/mol |
| SAGGVDPSKLTPLSTREVPVDDRRLLVTTYLTPDGKPLYTVTVLDAEGRPLGSELVPPEKVSADGRLESAGG [r13_447_JUSTAS] | 0.506 ± 0.11 kcal/mol | -0.0975 ± 0.1 kcal/mol | 0.334 ± 0.066 kcal/mol |

| Sequence | folding stability dG unfold [1] | folding stability dG unfold [2] | folding stability dG unfold [3] |
| --- | --- | --- | --- |
| SAGGVEELAKELAERLREELERRLGVEKVEVVDVEVVEVDEETGTVTVRITVRLPDGELLELELELHLDSAG [r5_20_TrROS_Hall] | 3.08 ± 0.13 kcal/mol | 3.47 ± 0.17 kcal/mol | 3.39 ± 0.15 kcal/mol |
| SAGGVERDPPGKNVYYVEIEIKIEIRDPNNGKPLEIPVPITYPFKSPADALEQMRRQARNLAEKLLNSAGGS [r16_624_TrROS] | 2.18 ± 0.1 kcal/mol | 1.78 ± 0.041 kcal/mol | 2.03 ± 0.13 kcal/mol |
| SAGGVIELPNAGLPEFLAFLKEAAEKGIPNVTVILTGPSKPYLAIYDPKKNIVTVLHPNGKTYTFKASAGGS [r16_481_TrMRF] | 2.99 ± 0.058 kcal/mol | 2.76 ± 0.15 kcal/mol | 2.91 ± 0.12 kcal/mol |
| SAGGVIPPSATITTLKTYPDGTVLTNVTFPDGTPMTVTLTRETLPDGSVVLKFTNPATGEELATFPVSSAGG [r13_527_JUSTAS] | 2.15 ± 0.062 kcal/mol | 1.93 ± 0.063 kcal/mol | 2.15 ± 0.088 kcal/mol |
| SAGGVITAVESTTTPLPNGTVLVTLTLKEGGETLQVTVTVSPDGVTVTTPSGKTSTIAPEELASLLPSAGGS [r16_593_JUSTAS] | 1.39 ± 0.025 kcal/mol | 1.31 ± 0.025 kcal/mol | 1.34 ± 0.076 kcal/mol |
| SAGGVLETKLPGGVSVTYSETPFVKDGREYLVLPAAAGDPAGAPFVTTTVVEPETGEVLETTETPLASAGGS [r8_492_JUSTAS] | 0.536 ± 0.13 kcal/mol | 0.331 ± 0.059 kcal/mol | 0.465 ± 0.1 kcal/mol |
| SAGGVPVSVEVDPRGEVTITNPVNGSSLVIPVPPDAEVTVVSLPPSSVTVRVTVGGEERDIVLPPSSVSAGG [r19_309_JUSTAS] | 0.662 ± 0.034 kcal/mol | 0.587 ± 0.023 kcal/mol | 0.621 ± 0.065 kcal/mol |
| SAGGVRKIEFRIDLPDPNVTIEEIVERILKELGLKPEEAIVEVLKIEEVEDEDGIPHIRIDVKIYVPDKSAG [r5_528_TrMRF] | 2.98 ± 0.031 kcal/mol | 3.54 ± 0.1 kcal/mol | 3.21 ± 0.059 kcal/mol |
| SAGGVTIEVDPGTGKVTITFPDGSSATIEVPPDERAVLFVKEGEGEVEVALVREDDPEALEKALELGSAGGS [r16_623_TrMRF] | 1.34 ± 0.058 kcal/mol | 0.811 ± 0.059 kcal/mol | 1.05 ± 0.2 kcal/mol |
| SAGGVTTPVTFTVPPSLDPEEAAERIAKELEEELKAASNKKVKVTVESVTPLPDGTLRVTVVITTEPSAGGS [r8_156_JUSTAS] | 3.14 ± 0.067 kcal/mol | 3.76 ± 0.2 kcal/mol | 3.31 ± 0.086 kcal/mol |
| SAGGVVTVTVDPNSDKVTAYTTRTVTVYFNELGIWKEEEVTDVVTMSQEELEKLKEESGLPMVIVGASAGGS [r8_337_JUSTAS] | -0.0773 ± 0.19 kcal/mol | 0.216 ± 0.061 kcal/mol | 0.238 ± 0.094 kcal/mol |
| SAGGVYVIKIKFEFGDGLKAELFIMFQSWEQAKEQAENLARNHGLRIDEIEVVPIKPMPPPDPDDQKSAGGS [r8_364_TrROS] | 4.13 ± 0.14 kcal/mol | 2.46 ± 0.14 kcal/mol | 3.63 ± 0.29 kcal/mol |
| SAGGWIPPGAEIEIDEIGPDGTITVKIKYPDGKPMSITMRRQRDKDGKRYIELYFPGSGRPIASFPIKSAGG [r13_527_TrROS] | 1.57 ± 0.08 kcal/mol | 1.84 ± 0.03 kcal/mol | 1.78 ± 0.09 kcal/mol |
| SAGGWLWVRTNGRIFVIEIKTEMKWEYDPGDPGQWRMDMEPEIEVRPIPPDDIKPLPPVDEDDPENKSAGGS [r16_395_TrROS] | 2.09 ± 0.27 kcal/mol | 1.68 ± 0.13 kcal/mol | 1.87 ± 0.32 kcal/mol |
| SAGGWRIKLERDPENGKIKVSIERSPNEGYATVEVKLPNGKPLEIPGPMDSPDEMEEKARDYIKKLLSAGGS [r16_319_TrROS] | 1.01 ± 0.086 kcal/mol | 0.777 ± 0.09 kcal/mol | 0.991 ± 0.1 kcal/mol |
